According to US20110111454:

T1: IFNα2b[Tn]-FCHASE
T1 chain: VGVTETP


Biological target: T1, IFNα2b[Tn]-FCHASE

Protein	Specific Activity (mU/mg) on 1 mM IFNα2b[Tn]-FCHASE [mU/mg]	conversion of the glycopeptide acceptor by capillary electrophoresis
CgtBOH4384 (FL, N-terminal MalE) (protein) MFKISIILPTYNVEQYIARAIESCINQTFKDIEIIVVDDCGNDNSINIAKEYSKKDKRIKIIHNEKNLGLLRARYEGVKVANSPYIMFLDPDDYLELNACEECIKILDEQDEVDLVFFNAIVESNVISYKKFDFNSGFYSKKEFVKKIIAKKNLYWTMWGKLIRKKLYLEAFASLRLEKDVKINMAEDVLLYYPMLSQAQKIAYMNCNLYHYVPNNNSICNTKNEVLVKNNIQELQLVLNYLRQNYILNKYCSVLYVLIKYLLYIQIYKIKRTKLMVTLLAKINILTLKILFKYKKFLKQC	83.5	–
CgtB11168 (FL, N-terminal MalE) (protein) MSQISIILPTYNVEKYIARALESCINQTFKDIEIIVVDDCGNDKSIDIAKEYASKDDRIKIIHNEENLKLLRARYEGAKVATSPYIMFLDSDDYLELNACEECIKILDMGGGGKIDLLCFEAFITNAKKSIKKLNIKQGKYNNKEFTMQILKTKNPFWTMWAKIIKKDIYLKAFNMLNLKKEIKINMAEDALLYYPLTILSNEIFYLTQPLYTQHVNSNSITNNINSLEANIQEHKIVLNVLKSIKNKKTPLYFLIIYLLKIQLLKYEQNFNKRNINLIYYKINILYQKYQFKWKKFLYNLIP	–	ND^2 (For the CgtB enzyme from the 11168 only very low-level conversion was detectable on the glycopeptide acceptor by capillary electrophoresis <5%.)
